Test results: PMC4479010

Biological target: GFP monomer (GFP 11 linked to the N terminus of GFP 1–10), net charge −3 [GFP: P42212]
Assay: PAGE with 0.1% SDS + SEC; GFP oligomer mixture; SEC on Superdex 200 10/300 GL, 0.5 ml/min, 500 mM NaCl, 50 mM Tris pH 8.0 or PBS

## GFP monomer (GFP 11 linked to the N terminus of GFP 1–10), net charge −3 (from UniProt P42212 215-230; P42212 1-214) (designed binder)
  percent of expressed monomers polymerized to oligomers above the dimer: 50%
